Laboratory results as given in patent US7399833 (dated 2008).
“And” between values parts separate entries of the source, which are not always exact repeats. Identical values can stand only once.

T1: Mpl-X (the soluble extra-cellular domain of the Mpl receptor) (human, UniProt P40238 26-491, coupled to CNBr activated Sepharose resin)
T1 construct: extracellular domain; also called hu-MPL-X
T1 sequence (looked up): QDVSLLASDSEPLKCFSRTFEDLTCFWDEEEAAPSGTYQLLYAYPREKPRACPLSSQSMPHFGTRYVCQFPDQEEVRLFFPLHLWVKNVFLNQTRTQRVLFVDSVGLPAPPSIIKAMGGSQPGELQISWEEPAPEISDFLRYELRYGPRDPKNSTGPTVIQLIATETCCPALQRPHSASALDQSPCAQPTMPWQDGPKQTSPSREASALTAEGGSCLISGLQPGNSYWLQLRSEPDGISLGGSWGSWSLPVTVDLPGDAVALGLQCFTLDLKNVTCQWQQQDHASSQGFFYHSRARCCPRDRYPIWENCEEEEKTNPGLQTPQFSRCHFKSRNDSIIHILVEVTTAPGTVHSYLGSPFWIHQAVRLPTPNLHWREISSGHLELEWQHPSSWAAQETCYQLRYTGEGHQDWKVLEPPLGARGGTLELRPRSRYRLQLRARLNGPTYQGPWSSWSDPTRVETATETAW


Biological target: full length human Mpl receptor on 32D-MPL cells (human) (UniProt P40238)
Test: cell-based or functional assay

Chain of [Asn82, Ala83] MGDF 1-174 (ligand) (P40225 22-195 G103N/P104A): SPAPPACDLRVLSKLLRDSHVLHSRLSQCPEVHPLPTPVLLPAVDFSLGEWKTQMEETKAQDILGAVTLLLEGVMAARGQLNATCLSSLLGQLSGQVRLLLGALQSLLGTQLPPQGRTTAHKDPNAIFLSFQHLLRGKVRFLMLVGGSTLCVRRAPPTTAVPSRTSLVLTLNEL
Chain of [Asn120, Thr122] MGDF 1-174 (ligand) (P40225 22-195 A141N/K143T): as the sequence (P40225 22-195 G103N/P104A) above, with N82G, A83P, A120N, K122T counted along it
Chain of [Asn86] MGDF 1-174 (ligand) (P40225 22-195 L107N): as the sequence (P40225 22-195 G103N/P104A) above, with N82G, A83P, L86N counted along it
Chain of [Asn58, Thr60] MGDF 1-174 (ligand) (P40225 22-195 T79N/A81T): as the sequence (P40225 22-195 G103N/P104A) above, with T58N, A60T, N82G, A83P counted along it
Chain of [Asn53, Thr55] MGDF 1-174 (ligand) (P40225 22-195 T74N/M76T): as the sequence (P40225 22-195 G103N/P104A) above, with T53N, M55T, N82G, A83P counted along it
Chain of [Asn30, Thr32] MGDF 1-174 (ligand) (P40225 22-195 P51N/V53T): as the sequence (P40225 22-195 G103N/P104A) above, with P30N, V32T, N82G, A83P counted along it
Chain of [Asn92] MGDF 1-174 (ligand) (P40225 22-195 Q113N): as the sequence (P40225 22-195 G103N/P104A) above, with N82G, A83P, Q92N counted along it

| In Vitro Activity (units/ml), 32D-MPL cell proliferation | Specific Activity (units/ng), 32D-MPL cell proliferation / MGDF ELISA | Molecule |
| --- | --- | --- |
| 5940 units/ml and 9690 units/ml | 291 units/ng and 288 units/ng | [Asn120, Thr122] MGDF 1-174 (ligand) |
| 1970 units/ml | 188 units/ng | [Asn92] MGDF 1-174 (ligand) |
| 8830 units/ml | 232 units/ng | [Asn30, Thr32] MGDF 1-174 (ligand) |

The remaining lines, values behind:

| Molecule | In Vitro Activity (units/ml), 32D-MPL cell proliferation | Specific Activity (units/ng), 32D-MPL cell proliferation / MGDF ELISA |
| --- | --- | --- |
| [Asn82, Ala83] MGDF 1-174 (ligand) | 2660 units/ml and 3080 units/ml | 443 units/ng and 655 units/ng |
| [Asn86] MGDF 1-174 (ligand) | < 10 units/ml | < 22 units/ng |
| [Asn25] MGDF 1-174 (ligand) | 636 units/ml | 344 units/ng |
| [Asn30, Thr32, Asn120, Thr122] MGDF 1-174 (ligand) | 6420 units/ml | 247 units/ng |
| [Ser36, Asn38, Thr40] MGDF 1-174 (ligand) | < 10 units/ml | < 8 units/ng |
| [Asn53, Thr55] MGDF 1-174 (ligand) | 18000 units/ml | 269 units/ng |
| [Asn38, Thr40] MGDF 1-174 (ligand) | < 10 units/ml | < 8 units/ng |
| [Asn58, Thr60] MGDF 1-174 (ligand) | 4850 units/ml | 271 units/ng |

Biological target: T1, Mpl-X (the soluble extra-cellular …)
Test: Mpl-receptor affinity chromatography

| binding result | Molecule |
| --- | --- |
| binds | CHO-derived MGDF 1-163 (ligand, CHO-expressed material carries O-linked carbohydrate, which the letters do not show., see the note on m1; also called r-HuMGDF 1-163 (CHO)) SPAPPACDLRVLSKLLRDSHVLHSRLSQCPEVHPLPTPVLLPAVDFSLGEWKTQMEETKAQDILGAVTLLLEGVMAARGQLGPTCLSSLLGQLSGQVRLLLGALQSLLGTQLPPQGRTTAHKDPNAIFLSFQHLLRGKVRFLMLVGGSTLCVRRAPPTTAVPS |
| binds | CHO-derived MGDF 1-153 (ligand, CHO-expressed material carries O-linked carbohydrate, which the letters do not show., see the note on m1; also called r-HuMGDF 1-153 (CHO)) SPAPPACDLRVLSKLLRDSHVLHSRLSQCPEVHPLPTPVLLPAVDFSLGEWKTQMEETKAQDILGAVTLLLEGVMAARGQLGPTCLSSLLGQLSGQVRLLLGALQSLLGTQLPPQGRTTAHKDPNAIFLSFQHLLRGKVRFLMLVGGSTLCVR |
